{"source": "patent US20230322884A1", "about": "“IMMUNOSUPPRESSANT IN COMBINATION WITH HIGH AFFINITY IL-2 RECEPTOR AGONISTS AND RELATED DOSING” (Selecta Biosciences, Inc., priority 2022, published 2023)", "molecules": {"B1": {"name": "ovalbumin (protein, UniProt P01012 2-386, looked up)", "Ovalbumin": "GSIGAASMEFCFDVFKELKVHHANENIFYCPIAIMSALAMVYLGAKDSTRTQINKVVRFDKLPGFGDSIEAQCGTSVNVHSSLRDILNQITKPNDVYSFSLASRLYAEERYPILPEYLQCVKELYRGGLEPINFQTAADQARELINSWVESQTNGIIRNVLQPSSVDSQTAMVLVNAIVFKGLWEKAFKDEDTQAMPFRVTEQESKPVQMMYQIGLFRVASMASEKMKILELPFASGTMSMLVLLPDEVSGLEQLESIINFEKLTEWTSSNVMEERKIKVYLPRMKMEEKYNLTSVLMAMGITDVFSSSANLSGISSAESLKISQAVHAAHAEINEAGREVVGSAEAGVDAASVSEEFRADHPFLFCIKHIATNAVLFFGRCVSP", "notes": "model antigen administered to mice"}}, "test_system": "Ovalbumin-specific OTII T cells", "test": "Adoptive transfer of ovalbumin-specific OTII T cells, Foxp3 expression and total Treg (Example 5)", "assay_type": "in vivo, mice", "conditions": "OTII T cells adoptively transferred prior to treatment", "method": "However, expansion of antigen-specific Treg can be more desirable than expansion of total Treg. The ability of ImmTOR plus antigen combined with IL-2 mutein to induce and/or expand antigen-specific Treg was evaluated. Ovalbumin-specific OTII T cells were adoptively transferred into mice prior to treatment with ovalbumin and ImmTOR and/or IL-2 mutein."}
{"molecule": "B1", "values": [{"measurement": "percentage of Foxp3+ OTII cells", "result": "~6", "unit": "%"}]}
